Laboratory results as given in US20240059769A1 (BIOLOJIC DESIGN, published 2024).
Where a chain is given by its changes, count along the chain named.

B1: BDG38.075 (antibody, V domains shown)
VH: QMQLVESGGGVVQPGRSLRLSCAASGFAFRTYGMHWVRQAPGKGLEWVAVIWYDGSATHYADSVKGRFTITRDNSKNTLNLQMNSLRAEDTAVYYCVRAPQWYLSAEAFDLWGQGTMVTVSS
VL: SYVLTQPPSVSVAPGETATITCGGNLIGAYLVHWYQQKPGQAPVLVIYDDVDRPARIPERFSGSNSGNTATLTISRVEAGDEADYYCQVWDHDTNTMVFGGGTKLTVL
notes: IgG1
B2: BDG38.077 (antibody, V domains shown)
VH: B1 VH with R19T, A49G, S105T
VL: B1 VL with N25A, A29S, Y30R, V51S, A55S, S66I, R76D, D93S, T94S, M97Y
notes: IgG1
B3: Tralokinumab (antibody, V domains shown)
VH: QVQLVQSGAEVKKPGASVKVSCKASGYTFTNYGLSWVRQAPGQGLEWMGWISANNGDTNYGQEFQGRVTMTTDTSTSTAYMELRSLRSDDTAVYYCARDSSSSWARWFFDLWGRGTLVTVSS
VL: SYVLTQPPSVSVAPGKTARITCGGNIIGSKLVHWYQQKPGQAPVLVIYDDGDRPSGIPERFSGSNSGNTATLTISRVEAGDEADYYCQVWDTGSDPVVFGGGTKLTVL
B4: Lebrikizumab (antibody, V domains shown)
VH: QVTLRESGPALVKPTQTLTLTCTVSGFSLSAYSVNWIRQPPGKALEWLAMIWGDGKIVYNSALKSRLTISKDTSKNQVVLTMTNMDPVDTATYYCAGDGYYPYAMDNWGQGSLVTVSS
VL: DIVMTQSPDSLSVSLGERATINCRASKSVDSYGNSFMHWYQQKPGQPPKLLIYLASNLESGVPDRFSGSGSGTDFTLTISSLQAEDVAVYYCQQNNEDPRTFGGGTKVEIKR
B5: Ab clone 38.021 (yeast surface display) (scFv, V domains shown)
VH: B1 VH with R30D, A57N, H59V, V97A
VL: B3 VL with K16Q, I26L, I47V, G51S, G56R, T92H, G93S, P96H, V97Y
notes: YSD clone; also called BDG38_021
B6: Ab clone 38.040 (yeast surface display) (scFv, V domains shown)
VH: B1 VH with A28D, A57I, S105T
VL: B3 VL with K16Q, I26L, S29T, I47V, G51S, G56R, T92H, G93N, S94E, P96E
notes: YSD clone; also called BDG38_040
B7: BDG38.082 (antibody, V domains shown)
VH: B1 VH with Y53D, A57N, S105T
VL: B1 VL with L26M, A29G, A55D, T96Q, M97V
notes: IgG1
B8: BDG38.081 (antibody, V domains shown)
VH: B1 VH with Y53D, A57N, S105T
VL: B1 VL with E16Q, T19R, L26M, V44L, A55D, D93N, N95Q, T96Q
notes: IgG1
B9: BDG38.080 (antibody, V domains shown)
VH: B1 VH
VL: B1 VL with V51S, A55D, D93N, T96H
notes: IgG1
B10: BDG38.078 (antibody, V domains shown)
VH: B1 VH with A28E, V48L, A49G, A57N, A88V, S105T
VL: SYILTQPPSVSVAPGETATITCGGNLIGARLVHWYQQKPGQAPVLVIYDDSDRPSRIPERFSGSNIGNTATLTIERVEAGDEADYYCQVWDYYSDHMVFGGGTKLTVL
notes: IgG1
B11: BDG38.083 (antibody, V domains shown)
VH: B1 VH with R19T, A28E, A49G, Y53D, A57N, V97A, S105T
VL: B10 VL with E16Q, R30K, E75S, R76D, A79E, Y93S, H96T
notes: IgG1
B12: Clone C9 (yeast-displayed scFv) (scFv)
scFv: QMQLVESGGGVVQPGRSLRLSCAASGFTFRTYGMHWVRQAPGKGLEWVAVIWYDGSNKHYADSVKGRFTITRDNSKNTLNLQMNSLRAEDTAVYYCARSPQWEWVHEAFDLWGQGTMVTVSSGGGGSGGGGSGGGGSSYVLTQPPSVSVAPGQTARITCGGNLIGSKLVHWYQQKPGQAPVLVVYDDGDRPSWIPERFSGSNSGNTATLTISRVEAGDEADYYCQVWDSSSDGVVFGGGTKLTVL
B13: Clone C2 (yeast-displayed scFv) (scFv)
scFv: B12 scFv with S99A, W104L, V105T, H106A, L111I, G188S, W193L
B14: Clone C40 (yeast-displayed scFv) (scFv)
scFv: B12 scFv with L163N, G188S, W193R, S229T
B15: Clone C6 (yeast-displayed scFv) (scFv)
scFv: B12 scFv with S99A, E103M, W104L, H106A, G188S, W193R, G233H

biological target: T1, hTSLP-His (human, UniProt Q969D9 29-159, limits assumed); assay: competition ELISA: antibody titrated and pre-incubated with 7 nM TSLP-His, then on a plate coated with 33.001 (Tezepelumab), anti-His detection; row head on the sheet reads EC50, unit from the axis
T1 construct: bought; also called hTSLP (ACROBiosystems TSP-H52Hb); not shown: His tag

| Binder | IC50 |
| --- | --- |
| B1 | 3.39 nM |
| B2 | 8.48 nM |

biological target: hIL-13-His (human, UniProt P35225 35-146, limits assumed); assay: cell-based or functional assay
Sequence (P35225 35-146 limits assumed): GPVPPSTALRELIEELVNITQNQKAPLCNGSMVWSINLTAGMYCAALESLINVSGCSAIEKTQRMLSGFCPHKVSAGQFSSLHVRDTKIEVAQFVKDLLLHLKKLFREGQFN

| Binder | IC50, CD23 expression on monocytes (hPBMC, 0.7 nM IL-13) |
| --- | --- |
| B3 | 0.91 nM |
| B4 | 0.38 nM |

biological target: T2, human TSLP (human, UniProt Q969D9 29-159); assay: yeast surface display, affinity maturation library
T2 construct: also called hTSLP; rhTSLP

| Binder | binding result |
| --- | --- |
| B5 | binds |
| B6 | binds |

biological target: T3, recombinant human IL-13 (human, UniProt P35225 35-146); assay: cell-based or functional assay
T3 sequence (P35225 35-146 limits assumed): as above

| Binder | HEK-IL-13 [nM] (IC50, STAT6 reporter) |
| --- | --- |
| B1 | 0.0691 nM |
| B7 | 0.043 nM |
| B8 | 0.0483 nM |
| B9 | 0.0592 nM |
| B10 | 0.0508 nM |
| B11 | 0.0419 nM |
| B2 | 0.0505 nM |

biological target: T2, human TSLP; assay: SPR

| Binder | Kd | koff | kon |
| --- | --- | --- | --- |
| B1 | 0.012 nM | 2.38e-05 s⁻¹ | 1.98e+06 M⁻¹ s⁻¹ |
| B7 | 0.0616 nM | 0.000158 s⁻¹ | 2.56e+06 M⁻¹ s⁻¹ |
| B8 | 0.0692 nM | 0.000125 s⁻¹ | 1.81e+06 M⁻¹ s⁻¹ |
| B9 | 0.00722 nM | 1.81e-05 s⁻¹ | 2.5e+06 M⁻¹ s⁻¹ |
| B10 | 0.000231 nM | 2.95e-07 s⁻¹ | 1.28e+06 M⁻¹ s⁻¹ |
| B11 | 0.0983 nM | 0.000241 s⁻¹ | 2.45e+06 M⁻¹ s⁻¹ |
| B2 | 0.166 nM | 0.000144 s⁻¹ | 869000 M⁻¹ s⁻¹ |

biological target: T4, cynomolgus monkey (cyno) TSLP (cynomolgus monkey, UniProt A0A7N9CAT7 29-159); assay: SPR
T4 construct: also called cTSLP; cynomolgus TSLP
T4 sequence (A0A7N9CAT7 entry or part of it): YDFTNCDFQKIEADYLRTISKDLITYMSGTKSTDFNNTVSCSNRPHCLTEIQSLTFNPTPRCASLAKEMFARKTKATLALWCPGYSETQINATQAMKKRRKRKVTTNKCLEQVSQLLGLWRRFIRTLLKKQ

| Binder | Kd | koff | kon |
| --- | --- | --- | --- |
| B1 | 0.00279 nM | 7.59e-06 s⁻¹ | 2.72e+06 M⁻¹ s⁻¹ |
| B8 | 0.00487 nM | 4.36e-05 s⁻¹ | 8.96e+06 M⁻¹ s⁻¹ |

biological target: T3, recombinant human IL-13; assay: SPR

| Binder | Kd | koff | kon |
| --- | --- | --- | --- |
| B1 | 0.0318 nM | 0.000547 s⁻¹ | 1.72e+07 M⁻¹ s⁻¹ |
| B7 | 0.114 nM | 0.000956 s⁻¹ | 8.41e+06 M⁻¹ s⁻¹ |
| B8 | 0.0509 nM | 0.000872 s⁻¹ | 1.71e+07 M⁻¹ s⁻¹ |
| B9 | 0.0716 nM | 0.00114 s⁻¹ | 1.59e+07 M⁻¹ s⁻¹ |
| B10 | 0.0857 nM | 0.000203 s⁻¹ | 2.37e+06 M⁻¹ s⁻¹ |
| B11 | 0.0565 nM | 0.000401 s⁻¹ | 7.09e+06 M⁻¹ s⁻¹ |
| B2 | 0.0325 nM | 0.000539 s⁻¹ | 1.66e+07 M⁻¹ s⁻¹ |

biological target: T5, recombinant human TSLP (hTSLP)-Fc (human, UniProt Q969D9 29-159, limits assumed); assay: yeast surface display, flow cytometry, 10 nM hTSLP-Fc; MFI normalized to expression and to the positive control
T5 construct: not shown: Fc

| Binder | binding result |
| --- | --- |
| B12 | binds |
| B13 | binds |
| B14 | binds |
| B15 | binds |

biological target: T3, recombinant human IL-13; assay: cell-based or functional assay; remark: another data set of the same source

| Binder | IC50 CD23 |
| --- | --- |
| B1 | 0.0975 nM |
| B7 | 0.0391 nM |
| B8 | 0.0339 nM |
| B9 | 0.201 nM |
| B10 | 0.125 nM |
| B11 | 0.0215 nM |
| B2 | 0.0124 nM |

biological target: T2, human TSLP; assay: cell-based or functional assay

| Binder | IC50 TARC |
| --- | --- |
| B1 | 4.17 nM |
| B7 | 1.58 nM |
| B8 | 5.93 nM |
| B9 | 0.79 nM |
| B10 | 6.52 nM |
| B11 | 11.4 nM |
| B2 | 2.47 nM |

biological target: T1, hTSLP-His; assay: competition ELISA: antibody titrated and pre-incubated with 7 nM TSLP-His, then on a plate coated with 33.001 (Tezepelumab), anti-His detection; row head on the sheet reads EC50, unit from the axis; remark: another data set of the same source

| Binder | IC50 |
| --- | --- |
| B7 | 2.73 nM |
| B8 | 2.21 nM |
| B11 | 3.33 nM |

biological target: T1, hTSLP-His; assay: cell-based or functional assay

| Binder | IC50 [pM], STAT5 phosphorylation inhibition in MUTZ5 cells |
| --- | --- |
| B1 | 43.9 pM |
| B8 | 38.7 pM |
| B9 | 34.3 pM |
| B10 | 338 pM |
| B2 | 304 pM |

biological target: T1, hTSLP-His; assay: competition ELISA: antibody titrated and pre-incubated with 7 nM TSLP-His, then on a plate coated with 33.001 (Tezepelumab), anti-His detection; row head on the sheet reads EC50, unit from the axis; remark: another data set of the same source

| Binder | IC50 |
| --- | --- |
| B9 | 3.27 nM |
| B10 | 4.3 nM |

biological target: T6, recombinant human IL-13 (rh-IL-13)-Fc (human, UniProt P35225 35-146, limits assumed); assay: yeast surface display scFv, flow cytometry, 10 nM rh-IL-13-Fc
T6 construct: bought; not shown: human Fc
T6 sequence (P35225 35-146 limits assumed): as the sequence (P35225 35-146 limits assumed) above

| Binder | relative affinity (normalized MFI, % of positive control) |
| --- | --- |
| B12 | > 20% |
| B13 | > 20% |
| B14 | > 20% |
| B15 | > 20% |

biological target: T1, hTSLP-His; assay: competition ELISA, 7 nM TSLP-His pre-incubated with antibody; competitor Tezepelumab coated

| Binder | IC50 |
| --- | --- |
| B1 | 3.94 nM |
| B7 | 2.7 nM |
| B8 | 2.2 nM |
| B9 | 3.27 nM |
| B10 | 4.3 nM |
| B11 | 3.33 nM |
| B2 | 8.47 nM |

biological target: T7, recombinant cynomolgus monkey IL-13 (cynomolgus monkey, UniProt Q0PW92 21-132); assay: SPR
T7 construct: bought; also called rc-IL-13; cIL-13
T7 sequence (Q0PW92 entry or part of it): as the sequence (P35225 35-146 limits assumed) above, with G1S, R10K, M42V, S67N, H83R, L100V counted along it

| Binder | Kd | koff | kon |
| --- | --- | --- | --- |
| B1 | 0.454 nM | 0.0156 s⁻¹ | 3.45e+07 M⁻¹ s⁻¹ |
| B8 | 0.844 nM | 0.00675 s⁻¹ | 8e+06 M⁻¹ s⁻¹ |
